From publication PMC6008203 come the findings set out here.

Changes are numbered by the printed parent chain. Names and notes keep the numbering of the source.

Substrate in the series: CC(C)(COP(=O)(O)OP(=O)(O)OC[C@H]1O[C@@H](n2cnc3c(N)ncnc32)[C@H](O)[C@@H]1OP(=O)(O)O)[C@@H](O)C(=O)NCCC(=O)NCCS
The series can be described thus: purified protein. The series is classed as biochemical, Streptomyces platensis. The note with it: saturating 6 (100 μM), Tris pH 7.8, 25 °C.

B1: PtmA2 (Streptomyces platensis; A497K) (protein)
chain: MQHTTIGDVLREHRRSHPGRTALVDGPVRLTWPELDDRVNRLAGSLAASGIGRGDRIMWLGQNSFRVYELIAAAGKLGAMVCVGYWRWAPPEMEFALRDFDPHLVVWQHQEIHETVARTREALGSDDTARWLRHDSAPQDPDGYEAFLAAGGLADPDLDIDPDSPVLVLYTAAMSGRQCGSLLSHTNLIAMATAAAWLGDIDHTTAFLNSGPMFHIGNHQFWGMPTLLMAGKNVIVRRVVAEEVRDLLVAEECTHAFLMPPTVAEIVRLNRDTGHDLSRLRATVAPHLWEGMATTDTSRFTRSGAAAGRGYGQTELSGFAVTAAYGGPAAGNAGRPGPGLTVRVLDTAGRECAVGEAGEICARGTVVHRGYWNRDEVNAHRFRSGWWHTTDLGRREPDGSLTFLGTTTRMLKSAAENIFPAEVENCIEQHPAVREAAVIGVPNTRWAQDVKAVVVLEPDAGVSEQEIIDHCRPRIASYKKPKSVAFAAALPRTVSGKRDYDALDKEYGGGGYPGAATLGPGR
Turning to B1, the Km (commonly the concentration of substrate that gives half-maximal velocity) was 6.8 ± 1.0 µM; the Vmax (usually the rate approached at saturating substrate) was 4.74 µmol/min; the kcat (usually the number of substrate molecules converted per active site and unit of time at saturation) amounted to 32 s⁻¹; the kcat/Km (commonly the turnover number divided by the Michaelis constant) amounted to 4.7e+06 M⁻¹ s⁻¹.

B2: PtmA2 (Streptomyces platensis; A172S/A173G/C179K/M174T/Q178P) (protein)
chain: B1 chain with A172S, A173G, M174T, Q178P, C179K, K497A
Turning to B2, where the note is “P-loop mutant”, the Km worked out at 70 ± 8 µM, the Vmax came to 8.88 µmol/min, the kcat amounted to 7.4 s⁻¹ and the kcat/Km stood at 110000 M⁻¹ s⁻¹.

B3: PtmA2 (Streptomyces platensis; A172S/A173G/A497K/C179K/M174T/Q178P) (protein)
chain: B1 chain with A172S, A173G, M174T, Q178P, C179K
As for B3, under “A497K/P-loop mutant”, the Km was 69 ± 11 µM, the Vmax turned out to be 5.94 µmol/min, the kcat was determined as 10 s⁻¹ and the kcat/Km stood at 140000 M⁻¹ s⁻¹.

B4: PtmA2 (Streptomyces platensis) (protein)
chain: B1 chain with K497A
Take B4: the Michaelis-Menten constant (Km) came out at 6.2 ± 0.6 µM, the Vmax is 5.82 µmol/min, the kcat was determined as 20 s⁻¹ and the kcat/Km turned out to be 3.2e+06 M⁻¹ s⁻¹.

B5: PtmA2 (Streptomyces platensis; E416A) (protein)
chain: B1 chain with E416A, K497A
Consider B5, for which the Km turned out to be 7.8 ± 1.2 µM, the Vmax worked out at 5.34 µmol/min, the turnover number (kcat) was found to be 0.18 s⁻¹ and the kcat/Km was found to be 23000 M⁻¹ s⁻¹.
